The target of the assay is meta-AAC0038^H168A (not stated (soil metagenome)). Kind of assay: crystal structure.

In turn, meta-AAC0038^H168A (enzyme) yielded a stoichiometry N of 2.

As a reminder, the stoichiometry N is a count of units in the complex or per binding partner.

The values above are taken from paper PMC8956665, “Structural and molecular rationale for the diversification of resistance mediated by the Antibiotic_NAT family” (Communications Biology, 2022).
